B1: EcSufS, untagged (wild type) (enzyme, Escherichia coli)
chain: MIFSVDKVRADFPVLSREVNGLPLAYLDSAASAQKPSQVIDAEAEFYRHGYAAVHRGIHTLSAQATEKMENVRKRASLFINARSAEELVFVRGTTEGINLVANSWGNSNVRAGDNIIISQMEHHANIVPWQMLCARVGAELRVIPLNPDGTLQLETLPTLFDEKTRLLAITHVSNVLGTENPLAEMITLAHQHGAKVLVDGAQAVMHHPVDVQALDCDFYVFSGHKLYGPTGIGILYVKEALLQEMPPWEGGGSMIATVSLSEGTTWTKAPWRFEAGTPNTGGIIGLGAALEYVSALGLNNIAEYEQNLMHYALSQLESVPDLTLYGPQNRLGVIAFNLGKHHAYDVGSFLDNYGIAVRTGHHCAMPLMAYYNVPAMCRASLAMYNTHEEVDRLVTGLQRIHRLLG
modifications: PLP (pyridoxal 5'-phosphate) cofactor
notes: EcSufS, cysteine desulfurase SufS of Escherichia coli, UniProt P77444; Untagged version used for crystallography and with the EcSufE variants; In samples with cysteine the active site cysteine is thought to carry a persulfide; also called SufSA; SufSB

What was measured:
SufE (Escherichia coli) = SufE (Escherichia coli) (UniProt P76194); experiment: fluorescence polarization; details: cited from earlier work
[1] = target: B1; experiment: fluorescence polarisation; 100 nM BODIPY-FL-labeled EcSufE titrated with EcSufS; 50 mM Mops pH 8.0, 150 mM NaCl, 0.1 mg/ml bovine serum albumin, 25 °C, 30 min; absence of cysteine; apparent KD; details: both partners purified
[2] = target: B1; experiment: fluorescence polarisation; 100 nM BODIPY-FL-labeled EcSufE titrated with EcSufS; 50 mM Mops pH 8.0, 150 mM NaCl, 0.1 mg/ml bovine serum albumin, 25 °C, 30 min; presence of 500 μM cysteine; apparent KD; details: both partners purified
[3] = target: B1; experiment: crystal structure; 230 μM SufS, 230 μM SufE (C51A, E107C) and 2 mM Cys; sitting drop vapor diffusion, PEG2000 MME, 0.1 M KSCN, 20 °C; details: both partners purified
[4] = target: the molecule itself; experiment: as above

Row | Kd [1] | Kd [2] | Molecule | other results
1 |  |  | SufS (from UniProt P77444) | Kd (SufE (Escherichia coli)): 5000 nM
2 | 2300 nM | 800 nM | BODIPY-FL-labeled T116A EcSufE in the C51A/E107C background (natural protein, Escherichia coli, BODIPY-FL maleimide label (labeling efficiency 60 to 80%), EcSufE of Escherichia coli, UniProt P76194, with C51A, E107C and T116A; also called T116A SufE; source: E. coli BL21(DE3)Δsuf, pET21, purified, labeled with BODIPY-FL maleimide) MALLPDKEKLLRNFLRCANWEEKYLYIIELGQRLPELRDEDRSPQNSIQGAQSQVWIVMRQNAQGIIELQGDSDAAIVKGLIAVVFILYDQMTPQDIVNFDVRPWFCKMALTQHLAPSRSQGLEAMIRAIRAKAAALS | 
3 | 1600 nM | 900 nM | BODIPY-FL-labeled R119K EcSufE in the C51A/E107C background (natural protein, Escherichia coli, BODIPY-FL maleimide label (labeling efficiency 60 to 80%), EcSufE of Escherichia coli, UniProt P76194, with C51A, E107C and R119K; also called R119K SufE; source: E. coli BL21(DE3)Δsuf, pET21, purified, labeled with BODIPY-FL maleimide) MALLPDKEKLLRNFLRCANWEEKYLYIIELGQRLPELRDEDRSPQNSIQGAQSQVWIVMRQNAQGIIELQGDSDAAIVKGLIAVVFILYDQMTPQDIVNFDVRPWFCKMALTQHLTPSKSQGLEAMIRAIRAKAAALS | 
4 | 5900 nM | 3600 nM | BODIPY-FL-labeled Q121A EcSufE in the C51A/E107C background (natural protein, Escherichia coli, BODIPY-FL maleimide label (labeling efficiency 60 to 80%), EcSufE of Escherichia coli, UniProt P76194, with C51A, E107C and Q121A; also called Q121A SufE; source: E. coli BL21(DE3)Δsuf, pET21, purified, labeled with BODIPY-FL maleimide) MALLPDKEKLLRNFLRCANWEEKYLYIIELGQRLPELRDEDRSPQNSIQGAQSQVWIVMRQNAQGIIELQGDSDAAIVKGLIAVVFILYDQMTPQDIVNFDVRPWFCKMALTQHLTPSRSAGLEAMIRAIRAKAAALS | 
5 | 7000 nM | 500 nM | BODIPY-FL-labeled Q121E EcSufE in the C51A/E107C background (natural protein, Escherichia coli, BODIPY-FL maleimide label (labeling efficiency 60 to 80%), EcSufE of Escherichia coli, UniProt P76194, with C51A, E107C and Q121E; also called Q121E SufE; source: E. coli BL21(DE3)Δsuf, pET21, purified, labeled with BODIPY-FL maleimide) MALLPDKEKLLRNFLRCANWEEKYLYIIELGQRLPELRDEDRSPQNSIQGAQSQVWIVMRQNAQGIIELQGDSDAAIVKGLIAVVFILYDQMTPQDIVNFDVRPWFCKMALTQHLTPSRSEGLEAMIRAIRAKAAALS | 
6 |  |  | C51A/E107C EcSufE (unlabeled, crystallised) (natural protein, Escherichia coli, EcSufE of Escherichia coli, UniProt P76194, with C51A and E107C; also called SufE C51A/E107C; SufE (C51A, E107C)) MALLPDKEKLLRNFLRCANWEEKYLYIIELGQRLPELRDEDRSPQNSIQGAQSQVWIVMRQNAQGIIELQGDSDAAIVKGLIAVVFILYDQMTPQDIVNFDVRPWFCKMALTQHLTPSRSQGLEAMIRAIRAKAAALS | stoichiometry N [3]: 1
7 | 300 nM | 500 nM | BODIPY-FL-labeled R119A EcSufE in the C51A/E107C background (natural protein, Escherichia coli, BODIPY-FL maleimide label (labeling efficiency 60 to 80%), EcSufE of Escherichia coli, UniProt P76194, with C51A, E107C and R119A; also called R119A SufE; R119A EcSufE (in double mutant background); source: E. coli BL21(DE3)Δsuf, pET21, purified, labeled with BODIPY-FL maleimide) MALLPDKEKLLRNFLRCANWEEKYLYIIELGQRLPELRDEDRSPQNSIQGAQSQVWIVMRQNAQGIIELQGDSDAAIVKGLIAVVFILYDQMTPQDIVNFDVRPWFCKMALTQHLTPSASQGLEAMIRAIRAKAAALS | 
8 | 2200 nM | 3100 nM | BODIPY-FL-labeled T116S EcSufE in the C51A/E107C background (natural protein, Escherichia coli, BODIPY-FL maleimide label (labeling efficiency 60 to 80%), EcSufE of Escherichia coli, UniProt P76194, with C51A, E107C and T116S; also called T116S SufE; source: E. coli BL21(DE3)Δsuf, pET21, purified, labeled with BODIPY-FL maleimide) MALLPDKEKLLRNFLRCANWEEKYLYIIELGQRLPELRDEDRSPQNSIQGAQSQVWIVMRQNAQGIIELQGDSDAAIVKGLIAVVFILYDQMTPQDIVNFDVRPWFCKMALTQHLSPSRSQGLEAMIRAIRAKAAALS | 
9 |  |  | B1 | binding result [4]: binds

Source: PMC11408855, “The structure of the SufS–SufE complex reveals interactions driving protected persulfide transfer in iron-sulfur cluster biogenesis” (The Journal of Biological Chemistry, 2024)
